Reference: patent CN112592401A

Target: 灭活非洲猪瘟病毒抗原 (非洲猪瘟全病毒)
Test: ELISA with whole ASFV, as in Fig. 6 (scFv coated, inactivated ASFV captured)

B1: 抗非洲猪瘟病毒的ScFv抗体VH-VLλ11 (scFv)
scFv: MEVKLVESGGGLVQPGGSLRLSCVGSEYEFRGSLIHWVRQAPGKGLEWLATICTTDPITEYADSVKGRFTISRDSSQNTAYLQMDSLRGEDTARYYCGVAFSYGGGCHRMDLRGQGVEVVVGGGGSGGMSQTVIQEPAMSVSPGGTVTLTCAFSSGSESTRKYPIRFQQTPGQPPRLLIYHTNSRPTGVPSRFSGAISGNKAALTITGAQAEDEADYFCSLYIRTYNVPFGGGTHLTVL
OD450nm: 1.12 OD450nm
